Patent publication US20170281788A1

Molecular target: insulin receptor (IR-B) (UniProt P06213)
Test: cell-based or functional assay

“CIU-033 (from UniProt P09681 52-93) (ligand; B1 amine-CH2CH2CH2-S-S-Cys of incretin; X=Aib)” showed a Normalized IR-B EC50 of 0.988 nM.
